Laboratory results published in patent publication US20200131230A1 (published 2020).
Like-named read-outs stand apart in the source and are kept apart here. Positions of bridges follow the written chain, without caps; N, C: chain ends. Non-standard residues stand in square brackets, D forms with d. 2Nal = N[C@@H](Cc1ccc2ccccc2c1)C(=O)O; Pen = CC(C)(S)[C@H](N)C(=O)O; Phg = N[C@H](C(=O)O)c1ccccc1; Tle = CC(C)(C)[C@H](N)C(=O)O; hCys = N[C@@H](CCS)C(=O)O; Nle = CCCC[C@H](N)C(=O)O; HCt = not defined here; MS = not defined here

Columns and labels:
[1] = target: T1, Thrombospondin human platelet (Calbiochem, 605225) (human, UniProt P07996 19-1170); experiment: cell-based or functional assay
T1 sequence (P07996 19-1170 limits assumed): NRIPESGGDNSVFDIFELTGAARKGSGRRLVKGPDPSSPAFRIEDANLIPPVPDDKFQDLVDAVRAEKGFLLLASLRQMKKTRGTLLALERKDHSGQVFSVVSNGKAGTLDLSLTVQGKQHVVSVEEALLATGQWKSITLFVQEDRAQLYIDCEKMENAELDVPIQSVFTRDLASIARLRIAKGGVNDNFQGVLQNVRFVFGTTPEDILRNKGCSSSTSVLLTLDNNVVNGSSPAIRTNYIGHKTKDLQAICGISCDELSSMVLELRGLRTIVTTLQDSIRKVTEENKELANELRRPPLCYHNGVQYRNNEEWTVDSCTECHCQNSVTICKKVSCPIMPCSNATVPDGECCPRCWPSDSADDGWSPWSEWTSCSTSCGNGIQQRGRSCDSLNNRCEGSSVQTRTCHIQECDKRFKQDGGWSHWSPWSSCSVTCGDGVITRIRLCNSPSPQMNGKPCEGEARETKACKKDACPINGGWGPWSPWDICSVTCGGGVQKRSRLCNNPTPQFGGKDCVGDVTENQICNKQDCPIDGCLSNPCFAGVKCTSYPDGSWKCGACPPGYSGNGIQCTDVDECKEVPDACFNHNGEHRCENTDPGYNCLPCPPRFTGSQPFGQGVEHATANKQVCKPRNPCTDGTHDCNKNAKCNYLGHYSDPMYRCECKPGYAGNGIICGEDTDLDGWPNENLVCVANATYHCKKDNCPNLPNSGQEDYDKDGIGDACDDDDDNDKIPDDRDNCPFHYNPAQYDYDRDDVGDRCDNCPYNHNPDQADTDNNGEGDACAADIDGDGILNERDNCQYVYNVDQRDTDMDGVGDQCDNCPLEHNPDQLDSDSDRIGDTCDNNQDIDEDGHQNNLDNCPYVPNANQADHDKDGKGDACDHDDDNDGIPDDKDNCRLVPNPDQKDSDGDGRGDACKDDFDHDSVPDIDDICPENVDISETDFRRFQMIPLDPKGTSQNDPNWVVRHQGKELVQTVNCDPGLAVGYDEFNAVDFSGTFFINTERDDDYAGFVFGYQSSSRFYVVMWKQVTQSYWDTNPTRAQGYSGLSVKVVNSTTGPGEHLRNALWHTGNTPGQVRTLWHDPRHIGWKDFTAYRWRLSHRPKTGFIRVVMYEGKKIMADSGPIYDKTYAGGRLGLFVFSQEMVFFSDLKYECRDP

[2] = target: T1, Thrombospondin human platelet …; experiment: cell-based or functional assay; remark: listed apart in the source
[3] = target: T1, Thrombospondin human platelet …; experiment: cell-based or functional assay; remark: listed apart in the source
[4] = target: Recombinant-hTSP1 (human, UniProt P07996 19-1170, limits assumed); experiment: SPR (Biacore T200), single-cycle kinetics, recombinant hTSP1 immobilised on NTA chip
Recombinant-hTSP1, sequence (P07996 19-1170 limits assumed): as above
Protocol: First, 500 μM NiCl₂ was injected over an NTA-Chip (produced by GE Healthcare, BR100532) at a flow rate of 5 μL/min. for 1 minute to thereby activate NTA groups. Then, an EDC/NHS mixture was injected at a flow rate of 10 μL/min. for 7 minutes to thereby activate the carboxyl groups of dextran. Recombinant-hTSP1 was injected at a flow rate of 10 μL/min. for 7 minutes to immobilize the TSP1 on the substrate surfaces with activated NTA and carboxyl groups. Ethanolamine was injected at a flow rate of 10 μL/min. for 7 minutes to thereby deactivate unreacted, activated carboxyl groups.
Since Biacore T200 is highly responsive to change in DMSO concentrations, DMSO solutions were sequentially injected at concentrations of 4%, 4.4%, 4.8%, 5.2%, 5.6%, and 6% to correct for DMSO effects.
The analysis was conducted using the evaluation software provided with Biacore T100 and T200. A DMSO correction curve obtained by solvent correction measurements was applied for the analysis. Kinetics fitting was done on the difference data obtained by subtracting the baseline data from sample measurement data.

Binder | Cell adhesion IC50 [1] [nM] | other results
{CH2CO}-[2Nal]ISGKN[2Nal]VKWVC-NH2 (thioether N-12; SMILES CC[C@H](C)[C@@H]1NC(=O)[C@H](Cc2ccc3ccccc3c2)NC(=O)CSC[C@@H](C(N)=O)NC(=O)[C@H](C(C)C)NC(=O)[C@H](Cc2c[nH]c3ccccc23)NC(=O)[C@H](CCCCN)NC(=O)[C@H](C(C)C)NC(=O)[C@H](Cc2ccc3ccccc3c2)NC(=O)[C@H](CC(N)=O)NC(=O)[C@H](CCCCN)NC(=O)CNC(=O)[C@H](CO)NC1=O) [Compound 56] | 13.2 | –
{CH2CO}-[2Nal]ISGRNWVKWV[hCys]-NH2 (thioether N-12; SMILES CC[C@H](C)[C@@H]1NC(=O)[C@H](Cc2ccc3ccccc3c2)NC(=O)CSCC[C@@H](C(N)=O)NC(=O)[C@H](C(C)C)NC(=O)[C@H](Cc2c[nH]c3ccccc23)NC(=O)[C@H](CCCCN)NC(=O)[C@H](C(C)C)NC(=O)[C@H](Cc2c[nH]c3ccccc23)NC(=O)[C@H](CC(N)=O)NC(=O)[C@H](CCCNC(=N)N)NC(=O)CNC(=O)[C@H](CO)NC1=O) [Compound 54] | 19.5 | –
{CH2CO}-[2Nal]ISGRNW[Phg]KWVC-NH2 (thioether N-12; SMILES CC[C@H](C)[C@@H]1NC(=O)[C@H](Cc2ccc3ccccc3c2)NC(=O)CSC[C@@H](C(N)=O)NC(=O)[C@H](C(C)C)NC(=O)[C@H](Cc2c[nH]c3ccccc23)NC(=O)[C@H](CCCCN)NC(=O)[C@H](c2ccccc2)NC(=O)[C@H](Cc2c[nH]c3ccccc23)NC(=O)[C@H](CC(N)=O)NC(=O)[C@H](CCCNC(=N)N)NC(=O)CNC(=O)[C@H](CO)NC1=O) [Compound 51] | 16 | –
{CH2CO}-[2Nal]RSGHNW[Nle]VWVC-NH2 (thioether N-12; SMILES CCCC[C@@H]1NC(=O)[C@H](Cc2c[nH]c3ccccc23)NC(=O)[C@H](CC(N)=O)NC(=O)[C@H](Cc2c[nH]cn2)NC(=O)CNC(=O)[C@H](CO)NC(=O)[C@H](CCCNC(=N)N)NC(=O)[C@H](Cc2ccc3ccccc3c2)NC(=O)CSC[C@@H](C(N)=O)NC(=O)[C@H](C(C)C)NC(=O)[C@H](Cc2c[nH]c3ccccc23)NC(=O)[C@H](C(C)C)NC1=O) [Compound 100] | – | Cell adhesion IC50 [2]: 19.5 nM
{CH2CO}-[2Nal]ISGHNW[Nle]KWVC-NH2 (thioether N-12; SMILES CCCC[C@@H]1NC(=O)[C@H](Cc2c[nH]c3ccccc23)NC(=O)[C@H](CC(N)=O)NC(=O)[C@H](Cc2c[nH]cn2)NC(=O)CNC(=O)[C@H](CO)NC(=O)[C@H]([C@@H](C)CC)NC(=O)[C@H](Cc2ccc3ccccc3c2)NC(=O)CSC[C@@H](C(N)=O)NC(=O)[C@H](C(C)C)NC(=O)[C@H](Cc2c[nH]c3ccccc23)NC(=O)[C@H](CCCCN)NC1=O) [Compound 59] | 20.7 | –
{CH2CO}-[2Nal]ISGRNWVKW[Phg]C-NH2 (thioether N-12; SMILES CC[C@H](C)[C@@H]1NC(=O)[C@H](Cc2ccc3ccccc3c2)NC(=O)CSC[C@@H](C(N)=O)NC(=O)[C@H](c2ccccc2)NC(=O)[C@H](Cc2c[nH]c3ccccc23)NC(=O)[C@H](CCCCN)NC(=O)[C@H](C(C)C)NC(=O)[C@H](Cc2c[nH]c3ccccc23)NC(=O)[C@H](CC(N)=O)NC(=O)[C@H](CCCNC(=N)N)NC(=O)CNC(=O)[C@H](CO)NC1=O) [Compound 52] | 10.3 | –
{CH2CO}-FISGKNWVSWVC-NH2 (thioether N-12; SMILES CC[C@H](C)[C@@H]1NC(=O)[C@H](Cc2ccccc2)NC(=O)CSC[C@@H](C(N)=O)NC(=O)[C@H](C(C)C)NC(=O)[C@H](Cc2c[nH]c3ccccc23)NC(=O)[C@H](CO)NC(=O)[C@H](C(C)C)NC(=O)[C@H](Cc2c[nH]c3ccccc23)NC(=O)[C@H](CC(N)=O)NC(=O)[C@H](CCCCN)NC(=O)CNC(=O)[C@H](CO)NC1=O) [Compound 66] | 33.8 | –
{CH2CO}-[2Nal]ISGSNWVKWVC-NH2 (thioether N-12; SMILES CC[C@H](C)[C@@H]1NC(=O)[C@H](Cc2ccc3ccccc3c2)NC(=O)CSC[C@@H](C(N)=O)NC(=O)[C@H](C(C)C)NC(=O)[C@H](Cc2c[nH]c3ccccc23)NC(=O)[C@H](CCCCN)NC(=O)[C@H](C(C)C)NC(=O)[C@H](Cc2c[nH]c3ccccc23)NC(=O)[C@H](CC(N)=O)NC(=O)[C@H](CO)NC(=O)CNC(=O)[C@H](CO)NC1=O) [Compound 44] | – | Cell adhesion IC50 [3]: 30.3 nM; Kd [4]: 0.58 nM
{CH2CO}-[2Nal]RSGKNW[Nle][Phg]WVC-NH2 (thioether N-12; SMILES CCCC[C@@H]1NC(=O)[C@H](Cc2c[nH]c3ccccc23)NC(=O)[C@H](CC(N)=O)NC(=O)[C@H](CCCCN)NC(=O)CNC(=O)[C@H](CO)NC(=O)[C@H](CCCNC(=N)N)NC(=O)[C@H](Cc2ccc3ccccc3c2)NC(=O)CSC[C@@H](C(N)=O)NC(=O)[C@H](C(C)C)NC(=O)[C@H](Cc2c[nH]c3ccccc23)NC(=O)[C@H](c2ccccc2)NC1=O) [Compound 103] | – | Cell adhesion IC50 [2]: 12.4 nM
{CH2CO}-[2Nal]ISG[3Hyp]NW[Nle]HWVC-NH2 (thioether N-12) [Compound 69] | 27.9 | –
{CH2CO}-[2Nal]ISGRN[2Nal]VKWVC-NH2 (thioether N-12; SMILES CC[C@H](C)[C@@H]1NC(=O)[C@H](Cc2ccc3ccccc3c2)NC(=O)CSC[C@@H](C(N)=O)NC(=O)[C@H](C(C)C)NC(=O)[C@H](Cc2c[nH]c3ccccc23)NC(=O)[C@H](CCCCN)NC(=O)[C@H](C(C)C)NC(=O)[C@H](Cc2ccc3ccccc3c2)NC(=O)[C@H](CC(N)=O)NC(=O)[C@H](CCCNC(=N)N)NC(=O)CNC(=O)[C@H](CO)NC1=O) [Compound 28] | – | Cell adhesion IC50 [3]: 29.4 nM; Kd [4]: 0.55 nM
{CH2CO}-[2Nal]ISGRNWVKW[Tle]C-NH2 (thioether N-12; SMILES CC[C@H](C)[C@@H]1NC(=O)[C@H](Cc2ccc3ccccc3c2)NC(=O)CSC[C@@H](C(N)=O)NC(=O)[C@H](C(C)(C)C)NC(=O)[C@H](Cc2c[nH]c3ccccc23)NC(=O)[C@H](CCCCN)NC(=O)[C@H](C(C)C)NC(=O)[C@H](Cc2c[nH]c3ccccc23)NC(=O)[C@H](CC(N)=O)NC(=O)[C@H](CCCNC(=N)N)NC(=O)CNC(=O)[C@H](CO)NC1=O) [Compound 53] | 15.9 | –
{CH2CO}-FISGRNWVTWVC-NH2 (thioether N-12; SMILES CC[C@H](C)[C@@H]1NC(=O)[C@H](Cc2ccccc2)NC(=O)CSC[C@@H](C(N)=O)NC(=O)[C@H](C(C)C)NC(=O)[C@H](Cc2c[nH]c3ccccc23)NC(=O)[C@H]([C@@H](C)O)NC(=O)[C@H](C(C)C)NC(=O)[C@H](Cc2c[nH]c3ccccc23)NC(=O)[C@H](CC(N)=O)NC(=O)[C@H](CCCNC(=N)N)NC(=O)CNC(=O)[C@H](CO)NC1=O) [Compound 65] | 30.6 | –
{CH2CO}-[2Nal]ISG[MS]DW[Nle]KWVC-NH2 (thioether N-12; reading uncertain) [Compound 67] | 12.7 | –
{CH2CO}-[2Nal]ISGRDW[Nle]KWV[Pen]-NH2 (thioether N-12; SMILES CCCC[C@@H]1NC(=O)[C@H](Cc2c[nH]c3ccccc23)NC(=O)[C@H](CC(=O)O)NC(=O)[C@H](CCCNC(=N)N)NC(=O)CNC(=O)[C@H](CO)NC(=O)[C@H]([C@@H](C)CC)NC(=O)[C@H](Cc2ccc3ccccc3c2)NC(=O)CSC(C)(C)[C@@H](C(N)=O)NC(=O)[C@H](C(C)C)NC(=O)[C@H](Cc2c[nH]c3ccccc23)NC(=O)[C@H](CCCCN)NC1=O) [Compound 79] | – | Cell adhesion IC50 [2]: 15 nM
{CH2CO}-[2Nal]ISGKDW[Nle]KWVC-NH2 (thioether N-12; SMILES CCCC[C@@H]1NC(=O)[C@H](Cc2c[nH]c3ccccc23)NC(=O)[C@H](CC(=O)O)NC(=O)[C@H](CCCCN)NC(=O)CNC(=O)[C@H](CO)NC(=O)[C@H]([C@@H](C)CC)NC(=O)[C@H](Cc2ccc3ccccc3c2)NC(=O)CSC[C@@H](C(N)=O)NC(=O)[C@H](C(C)C)NC(=O)[C@H](Cc2c[nH]c3ccccc23)NC(=O)[C@H](CCCCN)NC1=O) [Compound 57] | 15.6 | –
{CH2CO}-[2Nal]ISG[HCt]DW[Nle]KWVC-NH2 (thioether N-12; reading uncertain) [Compound 74] | 20.7 | –
